Results on 1 molecule are retold here after publication PMC3184076 (PLoS ONE, 2011).

Experiment [1] concerns the target T1, MPR.03 biotinylated peptide (HIV-1, synthetic MPER sequence, strain …).
T1 construct: also called MPR.03 peptide; MPER peptide; source: synthetic peptide, bought: CPC Scientific Inc
Briefly: SPR. Conditions: both partners purified.

A further experiment has as its target T2, MPER656 peptide (HIV-1, strain  (residues …)).
T2 construct: also called wild type MPER656 peptide
T2 chain: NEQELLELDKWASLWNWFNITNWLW
Briefly: SPR. The following applies: both partners purified.

In the next experiment the target is MPER26 peptide (HIV-1, strain  (residues …, biotin on the N-terminus)). Briefly: SPR. Conditions: both partners purified.
The next experiment addresses T3, JR-FL gp140 (HIV-1 subtype B, JR-FL, UniProt Q75760, strain).
T3 construct: also called JR-FL gp140 envelope protein; source: generated as described [41]
Briefly: ELISA. Background: In an ELISA, binding on a coated surface is turned into a signal by an enzyme label.

The target of another experiment is T4, Centromere B autoantigen (Homo sapiens (assumed), UniProt P07199).
T4 construct: also called centromere B autoantigens
T4 sequence (P07199 whole entry): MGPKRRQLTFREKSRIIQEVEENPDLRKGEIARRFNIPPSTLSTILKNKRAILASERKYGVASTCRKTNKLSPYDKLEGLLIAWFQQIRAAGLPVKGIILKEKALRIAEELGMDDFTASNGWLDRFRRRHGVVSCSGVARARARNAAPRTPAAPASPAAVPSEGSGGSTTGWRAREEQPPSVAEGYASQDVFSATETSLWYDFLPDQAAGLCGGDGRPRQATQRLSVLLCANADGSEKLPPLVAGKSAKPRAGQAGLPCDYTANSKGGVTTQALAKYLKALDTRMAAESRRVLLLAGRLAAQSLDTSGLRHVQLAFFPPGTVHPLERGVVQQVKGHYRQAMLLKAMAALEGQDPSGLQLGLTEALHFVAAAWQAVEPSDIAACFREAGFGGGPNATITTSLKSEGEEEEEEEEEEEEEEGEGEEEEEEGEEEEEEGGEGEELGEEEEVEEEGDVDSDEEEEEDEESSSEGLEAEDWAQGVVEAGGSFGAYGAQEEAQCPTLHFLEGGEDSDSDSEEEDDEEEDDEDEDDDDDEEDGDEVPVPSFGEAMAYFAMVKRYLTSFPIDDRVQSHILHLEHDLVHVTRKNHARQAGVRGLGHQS
Briefly: AtheNA Multi-Lyte ANA II Test Kit (autoantigen immunoassay); kit of Zeus Scientific, per the manufacturer's instructions.

B1: CAP206-CH12 recombinant human monoclonal antibody (antibody, V domains shown)
VH: QVQLVQSGAEVKKPGSSVKLSCKASGGTFGSYSVTWVRQAPGQTFEWVGRIVPWVGVPNYAPKFQGRVTITADKSSTVYMELTSLRFEDTAVYYCATAYEASGLSYYYYMDDWGKGTTVTVSS
VL: EIVLTQSPGTLSLSPGERATLSCRASQSVTSSYLAWFRHKPGQAPRLLIYGASYRGTGIPDRISGSGSGTDFTLTISRLEPEDFAVYYCQHYGGSPGMYTFGQGTRLEIK
notes: also called CAP206-CH12 mAb; CAP-206-CH12 mAb
As for B1, the results for the dissociation constant Kd (in experiment [1]; in the experiment with MPER656 peptide; with MPER26 peptide) were 7.3 nM, 5.15 nM and 4.95 nM, respectively. In addition, the values for the binding result in the experiment with JR-FL gp140 and with Centromere B autoantigen were “no binding” and “binds”, respectively.

A word on the Kd: it is the equilibrium constant for the complex coming apart. A low value points to tighter binding.
